This note sets out measurements from CN104862283A (UNIV JINAN, dated 2015).

This assay deals with T1, 人肌红蛋白(Human Myoglobin) (human, UniProt P02144 2-154).
T1 construct: mature; Native protein, bought; also called 人肌红蛋白标准抗原; ABCam ab77876
T1 sequence (looked up): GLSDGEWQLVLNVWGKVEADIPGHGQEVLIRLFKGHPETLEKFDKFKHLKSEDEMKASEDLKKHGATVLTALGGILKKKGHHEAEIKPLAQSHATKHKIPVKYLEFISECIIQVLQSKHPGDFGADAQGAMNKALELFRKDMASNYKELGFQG
The assay can be described thus: indirect ELISA, human myoglobin coated at 300 ng/ml, purified antibody in two-fold dilutions from 1:10 000.

B1: 鼠源抗人肌红蛋白单克隆抗体3M4 (antibody, V domains shown)
VH: VKLQESGGGLVQPGGSMKLSCVASGFNFSSYWMSWVRQSPEKGLEWVAEIRLKSDNYATHYAESVKGKFTISRDDSKSSLYLQMNNLRTEDTGIYFCADHGLTGHWGQGTTVTVSS
VL: LTQSPAIMSASPGEKVTLTCSASSSVSSSYLYWYQQKPGSSPKIWIYSTSNLAFGVPDRFSGSGSGTSYSLTISTMEAEDAASYFCHQWSSYPFTFGAGTKLE
Take B1: the 效价 (titer, antibody dilution at OD450 about 1.0) (dilution fold) was > 1e+06.

B2: 鼠源抗人肌红蛋白单克隆抗体5M7 (antibody)
chain 1: VQLQESGAELARPGASVKLSCKASGYTFTIYWMQWVKQRPGQGLEWIGSIYPGDGDTRYNQKFKGKATFTADKSSSTAYMQLISLASEDSAVYYCATGLYYGYDEGHWYFDVWGQGTTV
chain 2: DIVMSQSPASLAVSLGQRATISYRASKSVSTSGYSYMHWNQQKPGQPPRLLIYLVSNLESGVPARFSGSGSGTDFTLNIHPVEEEDAATYYCQHIR
For the molecule B2, the “效价 (titer, antibody dilution at OD450 about 1.0)” value is ≥ 1e+06 dilution fold.
